Patent publication US20230110188A1 (ARGENX IIP, published 2023)
Residue numbers refer to the chain shown, from its start.

T1: Human MuSK (R&D Systems, cat. 10189-MK, histidine tag) (human, UniProt O15146 24-495)
T1 construct: Bought protein; also called human monomeric MuSK-6xhis; not shown: histidine tag (6xhis)
T1 sequence: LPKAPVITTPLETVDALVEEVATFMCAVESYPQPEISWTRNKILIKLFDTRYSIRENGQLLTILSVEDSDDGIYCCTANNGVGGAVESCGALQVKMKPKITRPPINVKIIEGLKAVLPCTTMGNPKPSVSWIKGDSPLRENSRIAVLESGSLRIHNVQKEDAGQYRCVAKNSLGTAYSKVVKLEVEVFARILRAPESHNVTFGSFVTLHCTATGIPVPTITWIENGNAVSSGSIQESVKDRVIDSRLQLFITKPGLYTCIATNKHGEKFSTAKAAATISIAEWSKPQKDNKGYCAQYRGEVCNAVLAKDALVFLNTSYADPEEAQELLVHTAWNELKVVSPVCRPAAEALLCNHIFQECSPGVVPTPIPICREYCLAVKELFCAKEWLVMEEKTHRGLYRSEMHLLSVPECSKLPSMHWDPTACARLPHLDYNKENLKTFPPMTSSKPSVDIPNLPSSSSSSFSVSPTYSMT

T2: human monomeric MuSK FLAG streptavidin (in house produced, batch 27-6-2019) (human, UniProt O15146 24-495)
T2 construct: also called full length MuSK; not shown: FLAG and streptavidin tags
T2 sequence: T1 sequence

B1: 3D10a (antibody, human IgG1, kappa, L234A L235A, V domains shown)
VH: EVQLVESGGGLVKPGGSLRLSCAASGFTFSASTMAWVRQAPGKGLEWVSSVSGDSHHIYYADSLKGRFTISRDNAKNSLYLQMNSLRAEDTAVYYCARERLLRLGVGFDSWGQGTLVTVSS
VL: DIQMTQSPSSLSASVGDRVTITCRASQRISGFVNWYQQKPGKAPKLLIYAASTLQSGVPSRFSGSGSGTDFTLTISSLQPEDFATYYCQQSYSPLYTFGQGTKLEIKR
B2: 3D9b (antibody, human IgG1, kappa, L234A L235A, V domains shown)
VH: EVQLVESGGGLVKPGGSLRLSCAASGFTFSTYTMHWVRQAPGKGLEWVSSISSRSAYKYYADSVKGRFTISRDNAKNSLYLQMNSLRAEDTAVYYCARDFFQLGPPRFDSWGQGTLVTVSS
VL: B1 VL with G31S, V33L, A50G, T53N, L95S
B3: 3F6c (antibody, human IgG1, kappa, L234A L235A, V domains shown)
VH: EVQLVESGGGLVKPGGSLRLSCAASGFTFSSYTMDWVRQAPGKGLEWVSSIGSNGDYIYYADSVRGRFTISRDNAKNSLYLQMNSLRAEDTAVYYCARGQLAVAGTHFDYWGQGTLVTVSS
VL: B1 VL with R28K, I29V, S30N, G31K, F32Y, Y96S
B4: 4D3 (antibody, human IgG1, kappa, L234A L235A, V domains shown)
VH: B1 VH with A31S, S32Y, A35T, V51I, G53S, D54G, S55G, H57Y, A61T, S110F
VL: B1 VL with R28S, F32Y, V33L, P94A

target: T1, Human MuSK (R&D Systems, cat. 10189-MK, …); assay: SPR (Biacore), koff at pH 5.5 over koff at pH 7.4
Text: (§1) In order to study pH dependent binding of our antibodies to MuSK, the Biacore was used with the same setup as described in the paragraph entitled “Binding affinity for mouse, human and rhesus monkey recombinant MuSK in Biacore”. 6. […] For the other antibodies there is no real difference observed between pH 7.4 and 5.5.

| Fold difference (5.5/7.4) of koff [fold] | Binder |
| --- | --- |
| 0.6 | B1 |
| 0.3 | B2 |
| 2.5 | B3 |
| 1.1 | B4 |

target: T1, Human MuSK (R&D Systems, cat. 10189-MK, …); assay: SPR (Biacore), pH 5.5 (summary table, repeats the average of Table 17)
Text: as §1

| koff [s⁻¹] | Binder |
| --- | --- |
| 9e-05 | B1 |
| 4e-05 | B2 |
| 0.0002 | B3 |
| 0.00016 | B4 |

target: T1, Human MuSK (R&D Systems, cat. 10189-MK, …); assay: SPR (Biacore), MuSK-coated chip, antibody alone (run of first antibody 4D3)
Description: (§2) A chip was coated with ˜5000 RU of human MuSK (Lot nr DHUCO 11908A, batch nr 1089_MK). In a first experiment the saturating concentration of the pre-leads was determined. This is the concentration where the amplitude of a specific pre-lead doesn't increase anymore when additional pre-lead is injected on the immobilized MuSK.

| amplitude of prelead without presaturating MuSK (RU) | Binder |
| --- | --- |
| 951 | B1 |
| 1100 | B2 |
| 1010 | B3 |
| 859 | B4 |

target: T1, Human MuSK (R&D Systems, cat. 10189-MK, …); assay: SPR (Biacore), antibody captured on anti-hFc chip; 5 nM; dissociation pH 7.4
Text: as §1

| koff [s⁻¹] | Binder |
| --- | --- |
| 0.00015 | B1 |
| 8e-05 | B2 |
| 7e-05 | B3 |
| 0.00014 | B4 |

target: T1, Human MuSK (R&D Systems, cat. 10189-MK, …); assay: SPR (Biacore), antibody captured on anti-hFc chip; 5 nM; dissociation pH 5.5
Text: as §1

| koff [s⁻¹] | Binder |
| --- | --- |
| 0.0001 | B1 |
| 4e-05 | B2 |
| 0.0002 | B3 |
| 0.00018 | B4 |

target: T1, Human MuSK (R&D Systems, cat. 10189-MK, …); assay: SPR (Biacore), MuSK-coated chip, antibody alone (run of first antibody 3D9b)
Description: as §2

| amplitude of prelead without presaturating MuSK (RU) | Binder |
| --- | --- |
| 189 | B1 |
| 3970 | B2 |
| 235 | B3 |
| 188 | B4 |

target: T1, Human MuSK (R&D Systems, cat. 10189-MK, …); assay: SPR (Biacore), MuSK-coated chip, antibody alone (run of first antibody 3D10a)
Description: as §2

| amplitude of prelead without presaturating MuSK (RU) | Binder |
| --- | --- |
| 3130 | B1 |
| 2110 | B2 |
| 2510 | B3 |
| 2620 | B4 |

target: T1, Human MuSK (R&D Systems, cat. 10189-MK, …); assay: SPR (Biacore), antibody captured on anti-hFc chip; 2.5 nM; dissociation pH 7.4
Text: as §1

| koff [s⁻¹] | Binder |
| --- | --- |
| 0.00018 | B1 |
| 9e-05 | B2 |
| 6e-05 | B3 |
| 0.00015 | B4 |

target: T1, Human MuSK (R&D Systems, cat. 10189-MK, …); assay: SPR (Biacore), antibody captured on anti-hFc chip; 0.3125 nM; dissociation pH 7.4
Text: as §1

| koff [s⁻¹] | Binder |
| --- | --- |
| 0.00018 | B1 |
| 0.00018 | B2 |
| 0.00015 | B3 |
| 0.00013 | B4 |

target: T1, Human MuSK (R&D Systems, cat. 10189-MK, …); assay: SPR (Biacore), antibody captured on anti-hFc chip; average of 0.3125-10 nM; dissociation pH 5.5
Text: as §1

| koff [s⁻¹] | Binder |
| --- | --- |
| 9e-05 | B1 |
| 4e-05 | B2 |
| 0.0002 | B3 |
| 0.00016 | B4 |

target: T2, human monomeric MuSK FLAG streptavidin …; assay: epitope binning ELISA (coated anti-MuSK Fab, MuSK, IgG, anti-Fc HRP); competitor: 3F6c
Description: (§3) For epitope binning—An ELISA plate was coated at 1 μg/ml of the anti-MuSK Fabs and incubated overnight at 4° C. Next, the plate was wash with PBS followed by blocking with 1% casein in PBS for one hour. After washing the plate, 1 μg/ml of human monomeric MuSK (in house produced, batch 27-6-2019) was incubated for one hour at RT. The plate was washed and anti-MuSK antibodies at 0.3-10 μg/ml were added to the plate and incubated for one hour at RT. After washing the plate, detection antibody (goat anti-human Fc HRP (Jackson Immunoresearch cat. 109-035-098)) was added at 5000 fold dilution in PBS 0.1% casein. The plate was incubated for one hour at RT and washed with PBS-T. TMB was added and the reaction was stopped by adding H2504. […]
(§4) For the epitope binning ELISA, a plate was coated with anti-MuSK Fab and human monomeric MuSK was added after blocking the plate. Next the different antibodies were added and allowed to bind.

| OD 450 nm [OD] | Binder |
| --- | --- |
| 0.162 | B1 |
| 0.186 | B2 |
| 0.156 | B3 |
| 0.1 | B4 |

target: T2, human monomeric MuSK FLAG streptavidin …; assay: epitope binning ELISA (coated anti-MuSK Fab, MuSK, IgG, anti-Fc HRP); competitor: 3B5wt
Description: as §3, §4

| OD 450 nm [OD] | Binder |
| --- | --- |
| 2.12 | B1 |
| 2.66 | B2 |
| 2.2 | B3 |
| 0.882 | B4 |
